Earlier results, collected in PMC12152951.

Experiments:
IL7Rα (Homo sapiens) = IL7Rα (Homo sapiens) (UniProt P16871)
[1] = target: TSLPR-IL7Rα fusion protein (Homo sapiens) (UniProt Q9HC73)
TSLPR (Homo sapiens) = TSLPR (Homo sapiens) (UniProt Q9HC73)

Sequence of UniProt P16871 (P16871 21-239): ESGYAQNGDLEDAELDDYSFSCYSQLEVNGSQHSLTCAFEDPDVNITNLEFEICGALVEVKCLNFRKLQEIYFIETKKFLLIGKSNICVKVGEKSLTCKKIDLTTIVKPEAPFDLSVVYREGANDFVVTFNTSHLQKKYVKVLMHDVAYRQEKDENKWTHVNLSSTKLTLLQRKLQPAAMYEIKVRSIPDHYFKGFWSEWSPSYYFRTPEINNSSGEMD

Row | Kd (IL7Rα (Homo sapiens)) [nM] | Kd [1] [nM] | Kd (TSLPR (Homo sapiens)) [nM] | Substance
1 | 29 |  |  | TSLP-TSLPR complex (from UniProt Q969D9)
2 |  | 0.09 | 32 | TSLP (from UniProt Q969D9)
